According to paper PMC3248442 (2011):

Target: T1, integrin αVβ5 (Homo sapiens, UniProt P06756)
T1 chain 1: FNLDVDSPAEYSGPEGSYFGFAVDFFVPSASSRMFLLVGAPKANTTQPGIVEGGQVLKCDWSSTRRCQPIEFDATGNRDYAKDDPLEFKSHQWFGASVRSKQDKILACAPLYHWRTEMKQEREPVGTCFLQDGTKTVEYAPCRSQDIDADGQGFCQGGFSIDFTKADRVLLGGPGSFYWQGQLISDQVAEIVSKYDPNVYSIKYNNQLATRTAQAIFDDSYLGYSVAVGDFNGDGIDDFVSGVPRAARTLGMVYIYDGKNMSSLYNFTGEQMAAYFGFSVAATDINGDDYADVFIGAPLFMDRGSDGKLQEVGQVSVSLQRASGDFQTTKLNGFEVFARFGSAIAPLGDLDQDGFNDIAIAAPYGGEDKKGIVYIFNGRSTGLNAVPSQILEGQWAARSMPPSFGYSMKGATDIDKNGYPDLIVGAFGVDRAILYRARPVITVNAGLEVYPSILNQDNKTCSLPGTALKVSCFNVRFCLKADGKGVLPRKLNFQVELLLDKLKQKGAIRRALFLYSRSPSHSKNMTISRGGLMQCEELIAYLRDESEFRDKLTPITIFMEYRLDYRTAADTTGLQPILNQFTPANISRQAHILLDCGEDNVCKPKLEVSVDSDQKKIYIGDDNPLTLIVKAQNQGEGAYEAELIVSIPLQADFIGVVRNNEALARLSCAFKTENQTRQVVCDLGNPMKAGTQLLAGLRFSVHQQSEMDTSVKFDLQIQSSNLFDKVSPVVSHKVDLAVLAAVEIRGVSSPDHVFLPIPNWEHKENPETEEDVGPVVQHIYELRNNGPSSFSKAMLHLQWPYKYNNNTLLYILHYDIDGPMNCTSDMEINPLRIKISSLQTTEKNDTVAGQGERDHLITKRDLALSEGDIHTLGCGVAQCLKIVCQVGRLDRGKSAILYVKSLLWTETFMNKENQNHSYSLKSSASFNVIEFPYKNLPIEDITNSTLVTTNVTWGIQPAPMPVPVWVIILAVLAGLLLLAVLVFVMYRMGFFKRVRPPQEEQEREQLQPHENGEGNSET
T1 chain 2: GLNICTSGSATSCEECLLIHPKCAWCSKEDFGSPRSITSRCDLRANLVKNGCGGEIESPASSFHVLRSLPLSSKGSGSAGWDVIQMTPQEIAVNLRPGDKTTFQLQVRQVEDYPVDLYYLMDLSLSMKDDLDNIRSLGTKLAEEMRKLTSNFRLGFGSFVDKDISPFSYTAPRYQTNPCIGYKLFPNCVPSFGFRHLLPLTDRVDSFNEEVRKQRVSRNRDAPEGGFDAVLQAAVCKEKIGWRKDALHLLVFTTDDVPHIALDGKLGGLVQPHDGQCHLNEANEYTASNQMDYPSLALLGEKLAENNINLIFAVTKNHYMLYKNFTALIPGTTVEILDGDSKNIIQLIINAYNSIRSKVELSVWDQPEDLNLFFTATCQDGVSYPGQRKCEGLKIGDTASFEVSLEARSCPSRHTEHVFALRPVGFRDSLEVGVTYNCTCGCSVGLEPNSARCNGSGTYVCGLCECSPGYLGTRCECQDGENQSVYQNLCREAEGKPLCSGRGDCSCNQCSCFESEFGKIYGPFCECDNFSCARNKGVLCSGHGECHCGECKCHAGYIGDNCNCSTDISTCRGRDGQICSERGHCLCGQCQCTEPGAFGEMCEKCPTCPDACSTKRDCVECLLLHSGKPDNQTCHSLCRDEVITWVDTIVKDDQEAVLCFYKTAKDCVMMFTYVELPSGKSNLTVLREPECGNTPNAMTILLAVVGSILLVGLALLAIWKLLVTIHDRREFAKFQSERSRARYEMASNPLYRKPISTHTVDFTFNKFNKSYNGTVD
Assay: solid-phase binding assay (fluorescent immunoassay)

B1: PilY1 532-1163 (protein)
chain: AGDLTRYSLTTQDKATVQTKLWSAQSILDAMPNGGAGRKIMMAGSGTSGLKEFTWGSLSADQQRQLNRDPDRNDVADTKGQDRVAFLRGDRSKENSDNFRTRNSILGDIINSSPATVGKAQYLTYLAQPIEPSGNYSTFAEAQKTRAPRVYVGANDGMLHGFDTDGNETFAFIPSAVFEKLHKLTARGYQGGAHQFYVDGSPVVADAFFGGAWHTVLIGSLRAGGKGLFALDVTDPANIKLLWEIGVDQEPDLGYSFPKPTVARLHNGKWAVVTGNGYSSLNDKAALLIIDLETGAITRKLEVTGRTGVPNGLSSPRLADNNSDGVADYAYAGDLQGNLWRFDLIAGKVNQDDPFSRANDGPAVASSFRVSFGGQPLYSAVDSAGAAQAITAAPSLVRHPTRKGYIVIFGTGKYFENADARADTSRAQTLYGIWDQQTKGEAAGSTPRLTRGNLQQQTLDLQADSTFASTARTIRIASQNPVNWLNNDGSTKQSGWYLDFMVNGTLKGEMLIEDMIAIGQVVLLQTITPNDDPCADGASNWTYGLDPYTGGRTSFTVFDLARQGVVDSKSDYSYNKQNVAVSGTEQKGLGGLTLSTNEQGNPEVCSSGECLTVNPGPNTRGRQNWRPIEGKN
B1 showed a Kd of 164 nM.
